The values below come from paper PMC5578167.

In general, stoichiometry N refers to the number of molecules, sites or subunits per partner or assembly. A word on the Kd: it is the constant that tells how readily two partners part at equilibrium. The low end stands for higher affinity, the high end for lower affinity.

The target of experiment [1] is viral CC chemokine inhibitor (vCCI), rabbitpox virus (rabbitpox virus). Description: ITC. On the technique in general: In ITC the heat of successive injections is recorded.
Experiment [2] addresses viral CC chemokine inhibitor (vCCI), rabbitpox, produced and refolded from E. coli (rabbitpox virus). The experiment in a line: ITC.

Bounds are passed on as bounds.

B1: viral Macrophage Inflammatory Protein-II (vMIP-II), human herpesvirus 8 (natural protein)
chain: GDTLGASWHRPDKCCLGYQKRPLPQVLLSSWYPTSQLCSKPGVIFLTKRGRQVCADKSKDWVKKLMQQLPVTAR
Consider B1, for which the stoichiometry N in experiment [1] turned out to be 0.759.

B2: viral Macrophage Inflammatory Protein-II (vMIP-II) (natural protein)
chain: B1 chain
As for B2, the Kd in experiment [2] is < 0.1 nM.
